This is an account of results in patent US20190175688A1 (DREXEL UNIVERSITY, published 2019).

For assay [1], the target named is T1, HIV-1 YU-2 gp120 (wild-type gp120YU-2, monomeric) (HIV-1 (YU-2), UniProt P35961 32-498).
T1 construct: domain: gp120; only gp120 stood in the assay
The assay can be described thus: SPR competition, sCD4 inhibition: inhibition of gp120 binding to immobilized sCD4.

Assay [2] deals with T1, HIV-1 YU-2 gp120 (wild-type gp120YU-2, …). In words: SPR competition, 17b inhibition: inhibition of gp120 binding to immobilized mAb 17b.
For assay [3], the target named is T2, HIV-1 JR-FL envelope (gp120) on JR-FL pseudotyped virus (HIV-1 (JR-FL)). In words: cell-based or functional assay.
In assay [4] the target is T2, HIV-1 JR-FL envelope (gp120) on JR-FL …. In words: cell-based or functional assay. This is another data set of the same source.
The target in assay [5] is HIV-1 BaL.01 envelope on BaL.01 pseudotyped virus (HIV-1 (BaL.01)). The assay can be described thus: cell-based or functional assay.
Assay [6] concerns the target T1, HIV-1 YU-2 gp120 (wild-type gp120YU-2, …). The assay can be described thus: SPR competition (Biacore 3000): 250 nM gp120 YU-2 with increasing peptide over immobilised sCD4; inhibition of CD4 binding to gp120.
For assay [7] the target is unchanged. In words: SPR competition on gp120; which of sCD4 or 17b is not said.
Assay [8] shares this target. In words: SPR competition (Biacore 3000): 250 nM gp120 YU-2 with increasing peptide over immobilised mAb 17b; inhibition of mAb 17b binding to gp120.
For assay [9] the target is unchanged. The assay can be described thus: SPR competition binding assay on gp120.
For assay [10] the target is unchanged. In words: SPR competition (Biacore 3000): 250 nM gp120 YU-2 with increasing peptide over immobilised sCD4.
Assay [11] has the same target. The assay can be described thus: SPR competition (Biacore 3000): 250 nM gp120 YU-2 with increasing peptide over immobilised mAb 17b.
Assay [12] shares this target. The assay can be described thus: SPR competition: fixed 250 nM HIV-1 YU-2 gp120 with increasing peptide passed over immobilized mAb 17b; inhibition of gp120 binding to 17b.
For assay [13] the target is unchanged. The assay can be described thus: SPR competition: fixed 250 nM HIV-1 YU-2 gp120 with increasing peptide passed over immobilized sCD4; inhibition of gp120 binding to sCD4.
Assay [14] shares this target. In words: SPR competition: fixed 250 nM HIV-1 YU-2 gp120 with increasing peptide passed over immobilized mAb 17b; inhibition of gp120 binding to 17b. The source holds these as a separate data set.
Assay [15] has the same target. The assay can be described thus: SPR competition: fixed 250 nM HIV-1 YU-2 gp120 with increasing peptide passed over immobilized sCD4; inhibition of gp120 binding to sCD4. This is another data set of the same source.
For assay [16] the target is unchanged. In words: >.
The target is the same in assay [17]. The assay can be described thus: SPR competition: fixed 250 nM HIV-1 YU-2 gp120 with increasing peptide passed over immobilized sCD4; inhibition of gp120 binding to sCD4. This is another data set of the same source.

Starred links: 1 amine or outer side, 2 acyl side, 3 side chain; linkers in the order of their positions; H or OH if unused. Positions of bridges follow the written chain, without caps; N, C: chain ends. Non-standard residues stand in square brackets, D forms with d. No end group written: not given here. X2 = (2S,4S)‑4‑(4-ferrocenyl-1H-1,2,3-triazol-1-yl)pyrrolidine‑2‑carboxylic acid, O=C([C@@H]1C[C@H](n2cc(-[c-]3cccc3)nn2)CN1[*:1])[*:2].[Fe+2].c1cc[cH-]c1; X3 = (2S,4S)‑4‑(4-ferrocenyl-1H-1,2,3-triazol-1-yl)proline, O=C([C@@H]1C[C@H](n2cc(-[c-]3cccc3)nn2)CN1[*:1])[*:2].[Fe+2].c1cc[cH-]c1; Pro(cis-4-Trz(4-CH2CH2Ph)) = O=C(O)[C@@H]1C[C@H](n2cc(CCc3ccccc3)nn2)CN1; Bta = N[C@@H](Cc1csc2ccccc12)C(=O)O; Gly(cPr) = N[C@H](C(=O)O)C1CC1; Nle = CCCC[C@H](N)C(=O)O; Orn = NCCC[C@H](N)C(=O)O; Dab = NCC[C@H](N)C(=O)O

As to DN[Nle][X2]WK-NH2 (lactam 1-6) [AAR036], the IC50 in assay [1] and in [2] was approximately 2000 nM throughout.
Take DN[Gly(cPr)][X2]WK-NH2 (lactam 1-6) [AAR042]: the IC50 in assay [1] and in assay [2] was approximately 2000 nM throughout.
As to DNI[X2]WK-NH2 (lactam 1-6, Ferrocenyl analogue of AAR029) [AAR029b], the “gp120 shedding EC50 (JR-FL pseudotyped virus, Western blot densitometry of supernatant)” value in [3] came to 316 nM. The IC50 was 32 nM in assay [1] and 35 nM in assay [2]. Further, the “IC50, HIV-1 infection inhibition, JR-FL pseudotyped virus” value in assay [4] turned out to be 190 nM. For the same molecule, the “IC50, HIV-1 infection inhibition, Bal.01 pseudotyped virus” value in assay [5] was determined as 210 nM.
With IENI[X3]WK-NH2 (lactam 2-7, Ferrocenyl analogue of AAR024) [AAR024b], the IC50 is 40 nM in assay [1] and 37.6 nM in assay [2]. Besides, the “IC50, HIV-1 infection inhibition, JR-FL pseudotyped virus” value in assay [4] was determined as 603 nM. Besides, the “IC50, HIV-1 infection inhibition, Bal.01 pseudotyped virus” value in assay [5] is 650 nM.

B1: AAR024 (peptide)
peptide: IENI[Pro(cis-4-Trz(4-CH2CH2Ph))]WK-NH2
modifications: lactam 2-7; N-terminus assumed
SMILES: CC[C@H](C)[C@H](N)C(=O)N[C@H]1CCC(=O)NCCCC[C@@H](C(N)=O)NC(=O)[C@H](Cc2c[nH]c3ccccc23)NC(=O)[C@@H]2C[C@H](n3cc(CCc4ccccc4)nn3)CN2C(=O)[C@H]([C@@H](C)CC)NC(=O)[C@H](CC(N)=O)NC1=O
notes: Cyclic peptide triazole; also called cyclic heptapeptide AAR024
Consider B1, for which the half-maximal inhibitory concentration (IC50) is 138 nM in assay [6] and 269 nM in assay [8]. The “fold more active than the linear AAR024A” value in assay [7] is more than 40 fold.
For DNI[(2S,4S)‑4‑(4-(adamantan-2-yl)-1H-1,2,3-triazol-1-yl)pyrrolidine‑2‑carboxylic acid]WK-NH2 (lactam 1-6) [AAR029F], the IC50 in assay [1] and in assay [2] was approximately 200 nM throughout. The “IC50, HIV-1 infection inhibition, Bal.01 pseudotyped virus” value in assay [5] was approximately 1300 nM.

B2: AAR032 (peptide)
peptide: DNI[Pro(cis-4-Trz(4-CH2CH2Ph))]W[Dab]-NH2
modifications: lactam 1-6; N-terminus assumed
SMILES: CC[C@H](C)[C@@H]1NC(=O)[C@H](CC(N)=O)NC(=O)[C@@H](N)CC(=O)NCC[C@@H](C(N)=O)NC(=O)[C@H](Cc2c[nH]c3ccccc23)NC(=O)[C@@H]2C[C@H](n3cc(CCc4ccccc4)nn3)CN2C1=O
As to B2, the “fold improvement vs AAR031” value in [9] is approximately 10 fold. In addition, the IC50 in assay [1] turned out to be 500 nM; in assay [2], 400 nM.
Turning to DNI[(2S,4S)‑4‑(4-(4-ethylphenyl)-1H-1,2,3-triazol-1-yl)pyrrolidine‑2‑carboxylic acid]WK-NH2 (lactam 1-6) [AAR029H], the IC50 in [1] is approximately 318 nM; in [2], approximately 245 nM. Further, the “IC50, HIV-1 infection inhibition, Bal.01 pseudotyped virus” value in [5] is approximately 1900 nM.

B3: AAR029 (peptide)
peptide: DNI[Pro(cis-4-Trz(4-CH2CH2Ph))]WK-NH2
modifications: lactam 1-6
notes: Cyclic hexapeptide triazole; also called minimized hexapeptide AAR029; macrocycle AAR029
B3: the “fold enhanced activity vs AAR029b” value in [9] is approximately 2 fold. Moreover, the IC50 in assay [10] is 85 nM; in [11], 96 nM; in assay [12], 95.5 nM; in [13], 85.2 nM. Besides, the “fold more active than AAR029A” value in assay [7] was more than 200 fold. The “IC50, HIV-1 infection inhibition, JR-FL pseudotyped virus” value in assay [4] was determined as 2330 nM. For the same molecule, in assay [5], the “IC50, HIV-1 infection inhibition, Bal.01 pseudotyped virus” value turned out to be 2020 nM.

B4: AAR031 (peptide)
peptide: DNI[Pro(cis-4-Trz(4-CH2CH2Ph))]W[Orn]-NH2
modifications: lactam 1-6; N-terminus assumed
SMILES: CC[C@H](C)[C@@H]1NC(=O)[C@H](CC(N)=O)NC(=O)[C@@H](N)CC(=O)NCCC[C@@H](C(N)=O)NC(=O)[C@H](Cc2c[nH]c3ccccc23)NC(=O)[C@@H]2C[C@H](n3cc(CCc4ccccc4)nn3)CN2C1=O
B4: the results for the IC50 in [1] and in assay [2] were 5700 nM and 3900 nM, respectively.
Regarding ENI[Pro(cis-4-Trz(4-CH2CH2Ph))]W[Dab]-NH2 (lactam 1-6, also called macrocycle AAR030) [AAR030], the IC50 in assay [1] and in assay [2] was more than 20000 nM in each case.

B5: AAR024A (peptide)
peptide: IENI[Pro(cis-4-Trz(4-CH2CH2Ph))]WK-NH2
modifications: N-terminus assumed
SMILES: CC[C@H](C)[C@H](N)C(=O)N[C@@H](CCC(=O)O)C(=O)N[C@@H](CC(N)=O)C(=O)N[C@H](C(=O)N1C[C@@H](n2cc(CCc3ccccc3)nn2)C[C@H]1C(=O)N[C@@H](Cc1c[nH]c2ccccc12)C(=O)N[C@@H](CCCCN)C(N)=O)[C@@H](C)CC
notes: Acyclic (linear) counterpart of AAR024; also called acyclic analogue of AAR024; linear AAR024A
In the case of B5, the IC50 is 7890 nM in assay [1], 11300 nM in assay [2], 11300 nM in assay [14] and 7890 nM in [15]. In addition, the “fold less active than AAR024” value in assay [16] was 50 fold.
Consider DNI[X2][Bta]K-NH2 (lactam 1-6) [AAR029E], for which the IC50 in assay [1] and in [2] was approximately 20 nM throughout. Besides, the “IC50, HIV-1 infection inhibition, Bal.01 pseudotyped virus” value in assay [5] was 26 nM.

B6: AAR026 (peptide)
peptide: ENNI[Pro(cis-4-Trz(4-CH2CH2Ph))]WK-NH2
modifications: lactam 1-7; N-terminus assumed
SMILES: CC[C@H](C)[C@@H]1NC(=O)[C@H](CC(N)=O)NC(=O)[C@H](CC(N)=O)NC(=O)[C@@H](N)CCC(=O)NCCCC[C@@H](C(N)=O)NC(=O)[C@H](Cc2c[nH]c3ccccc23)NC(=O)[C@@H]2C[C@H](n3cc(CCc4ccccc4)nn3)CN2C1=O
notes: Cyclic peptide triazole
As for B6, the IC50 was found to be 540 nM in assay [10], 384 nM in assay [11], 541 nM in assay [1] and 541 nM in assay [17].
